± gives the standard deviation of the averaged measurements.
Experiment: total protein half-life in vivo (active degradation + dilution); higher = more stable protein
[1] = E. coli NCM3722 delta-clpP delta-lon delta-hslV, growth: N-lim chemostat, doubling time 6 h
[2] = E. coli NCM3722 delta-clpP, growth: N-lim chemostat, doubling time 6 h
[3] = E. coli NCM3722 delta-hslV, growth: N-lim chemostat, doubling time 6 h
[4] = E. coli NCM3722 delta-smpB, growth: N-lim chemostat, doubling time 6 h
[5] = wild type E. coli NCM3722, growth: C-lim chemostat, doubling time 3 h
[6] = wild type E. coli NCM3722, growth: C-lim chemostat, doubling time 6 h
[7] = wild type E. coli NCM3722, growth: C-lim chemostat, doubling time 12 h
[8] = wild type E. coli NCM3722, growth: N-lim chemostat, doubling time 12 h
[9] = wild type E. coli NCM3722, growth: P-lim chemostat, doubling time 6 h
[10] = wild type E. coli NCM3722, growth: P-lim chemostat, doubling time 12 h
[11] = E. coli NCM3722 delta-lon, growth: N-lim chemostat, doubling time 6 h
[12] = wild type E. coli NCM3722, growth: N-lim chemostat, doubling time 6 h

MSILTRWLLIPPVNARLIGRYRDYRRHGASAFSATLGCFWMILAWIFIPLEHPRWQRIRAEHKNLYPHINASRPRPLDPVRYLIQTCWLLIGASRKETPKPRRRAFSGLQNIRGRYHQWMNELPERVSHKTQHLDEKKELGHLSAGARRLILGIIVTFSLILALICVTQPFNPLAQFIFLMLLWGVALIVRRMPGRFSALMLIVLSLTVSCRYIWWRYTSTLNWDDPVSLVCGLILLFAETYAWIVLVLGYFQVVWPLNRQPVPLPKDMSLWPSVDIFVPTYNEDLNVVKNTIYASLGIDWPKDKLNIWILDDGGREEFRQFAQNVGVKYIARTTHEHAKAGNINNALKYAKGEFVSIFDCDHVPTRSFLQMTMGWFLKEKQLAMMQTPHHFFSPDPFERNLGRFRKTPNEGTLFYGLVQDGNDMWDATFFCGSCAVIRRKPLDEIGGIAVETVTEDAHTSLRLHRRGYTSAYMRIPQAAGLATESLSAHIGQRIRWARGMVQIFRLDNPLTGKGLKFAQRLCYVNAMFHFLSGIPRLIFLTAPLAFLLLHAYIIYAPALMIALFVLPHMIHASLTNSKIQGKYRHSFWSEIYETVLAWYIAPPTLVALINPHKGKFNVTAKGGLVEEEYVDWVISRPYIFLVLLNLVGVAVGIWRYFYGPPTEMLTVVVSMVWVFYNLIVLGGAVAVSVESKQVRRSHRVEMTMPAAIAREDGHLFSCTVQDFSDGGLGIKINGQAQILEGQKVNLLLKRGQQEYVFPTQVARVMGNEVGLKLMPLTTQQHIDFVQCTFARADTWALWQDSYPEDKPLESLLDILKLGFRGYRHLAEFAPSSVKGIFRVLTSLVSWVVSFIPRRPERSETAQPSDQALAQQ
total protein half-life in vivo [1]: 3.59 h
total protein half-life in vivo [2]: 3.59 ± 0.068 h
total protein half-life in vivo [3]: 3.23 ± 0.15 h
total protein half-life in vivo [4]: 3.25 ± 0.049 h
total protein half-life in vivo [5]: 2.31 ± 0.24 h
total protein half-life in vivo [6]: 3.01 ± 0.81 h
total protein half-life in vivo [7]: 4.36 h
total protein half-life in vivo [8]: 8.41 h
total protein half-life in vivo [9]: 3.59 ± 0.75 h
total protein half-life in vivo [10]: 6.3 ± 0.43 h

MDFSGKNVWVTGAGKGIGYATALAFVEAGAKVTGFDQAFTQEQYPFATEVMDVADAAQVAQVCQRLLAETERLDALVNAAGILRMGATDQLSKEDWQQTFAVNVGGAFNLFQQTMNQFRRQRGGAIVTVASDAAHTPRIGMSAYGASKAALKSLALSVGLELAGSGVRCNVVSPGSTDTDMQRTLWVSDDAEEQRIRGFGEQFKLGIPLGKIARPQEIANTILFLASDLASHITLQDIVVDGGSTLGA
total protein half-life in vivo [5]: 3.26 ± 0.27 h

MTTYDRNRNAITTGSRVMVSGTGHTGKILSIDTEGLTAEQIRRGKTVVVEGCEEKLAPLDLIRLGMN
total protein half-life in vivo [1]: 4.22 ± 0.059 h
total protein half-life in vivo [3]: 4.25 ± 0.64 h
total protein half-life in vivo [11]: 4.53 ± 0.13 h
total protein half-life in vivo [4]: 4.42 ± 0.76 h
total protein half-life in vivo [5]: 2.88 ± 0.38 h
total protein half-life in vivo [6]: 4.16 ± 0.068 h
total protein half-life in vivo [7]: 5.42 ± 0.38 h
total protein half-life in vivo [12]: 4.075 ± 0.023 h
total protein half-life in vivo [8]: 6.36 ± 0.21 h
total protein half-life in vivo [9]: 4.52 ± 0.25 h
total protein half-life in vivo [10]: 9.35 ± 0.55 h

MRLLPLVAAATAAFLVVACSSPTPPRGVTVVNNFDAKRYLGTWYEIARFDHRFERGLEKVTATYSLRDDGGLNVINKGYNPDRGMWQQSEGKAYFTGAPTRAALKVSFFGPFYGGYNVIALDREYRHALVCGPDRDYLWILSRTPTISDEVKQEMLAVATREGFDVSKFIWVQQPGS [P0A901]
total protein half-life in vivo [1]: 5.85 ± 0.12 h
total protein half-life in vivo [2]: 6.28 ± 0.6 h
total protein half-life in vivo [3]: 5.56 ± 0.29 h
total protein half-life in vivo [11]: 6.82 ± 0.84 h
total protein half-life in vivo [4]: 5.8 ± 0.32 h
total protein half-life in vivo [5]: 2.82 ± 0.082 h
total protein half-life in vivo [6]: 5.41 ± 0.38 h
total protein half-life in vivo [7]: 10.6 ± 2.6 h
total protein half-life in vivo [12]: 5.78 ± 0.14 h
total protein half-life in vivo [8]: 11.8 ± 1.4 h
total protein half-life in vivo [9]: 5.43 ± 0.26 h
total protein half-life in vivo [10]: 11.04 ± 0.072 h

MEQLRAELSHLLGEKLSRIECVNEKADTALWALYDSQGNPMPLMARSFSTPGKARQLAWKTTMLARSGTVRMPTIYGVMTHEEHPGPDVLLLERMRGVSVEAPARTPERWEQLKDQIVEALLAWHRQDSRGCVGAVDNTQENFWPSWYRQHVEVLWTTLNQFNNTGLTMQDKRILFRTRECLPALFEGFNDNCVLIHGNFCLRSMLKDSRSDQLLAMVGPGLMLWAPREYELFRLMDNSLAEDLLWSYLQRAPVAESFIWRRWLYVLWDEVAQLVNTGRFSRRNFDLASKSLLPWLA [P0AB03]
total protein half-life in vivo [1]: 5.11 h
total protein half-life in vivo [2]: 4.02 h
total protein half-life in vivo [3]: 2.54 ± 0.47 h
total protein half-life in vivo [11]: 2.51 h
total protein half-life in vivo [4]: 1.57 h
total protein half-life in vivo [5]: 2.16 ± 0.1 h
total protein half-life in vivo [6]: 3.92 ± 0.21 h
total protein half-life in vivo [7]: 6.84 ± 0.48 h
total protein half-life in vivo [9]: 3.8 h
total protein half-life in vivo [10]: 7.86 h

MKYSLGPVLWYWPKETLEEFYQQAATSSADVIYLGEAVCSKRRATKVGDWLEMAKSLAGSGKQIVLSTLALVQASSELGELKRYVENGEFLIEASDLGVVNMCAERKLPFVAGHALNCYNAVTLKILLKQGMMRWCMPVELSRDWLVNLLNQCDELGIRNQFEVEVLSYGHLPLAYSARCFTARSEDRPKDECETCCIKYPNGRNVLSQENQQVFVLNGIQTMSGYVYNLGNELASMQGLVDVVRLSPQGTDTFAMLDAFRANENGAAPLPLTANSDCNGYWRRLAGLELQA
total protein half-life in vivo [1]: 3.35 h

MLLATALLIVGLLLVVYSADRLVFAASILCRTFGIPPLIIGMTVVSIGTSLPEVIVSLAASLHEQRDLAVGTALGSNIINILLILGLAALVRPFTVHSDVLRRELPLMLLVSVVAGSVLYDGQLSRSDGIFLLFLAVLWLLFIVKLARQAERQGTDSLTREQLAELPRDGGLPVAFLWLGIALIIMPVATRMVVDNATVLANYFAISELTMGLTAIAIGTSLPELATAIAGVRKGENDIAVGNIIGANIFNIVIVLGLPALITPGEIDPLAYSRDYSVMLLVSIIFALLCWRRSPQPGRGVGVLLTGGFIVWLAMLYWLSPILVE
total protein half-life in vivo [1]: 4.93 h

MSQDNNFSQGPVPQSARKGVLALTFVMLGLTFFSASMWTGGTLGTGLSYHDFFLAVLIGNLLLGIYTSFLGYIGAKTGLTTHLLARFSFGVKGSWLPSLLLGGTQVGWFGVGVAMFAIPVGKATGLDINLLIAVSGLLMTVTVFFGISALTVLSVIAVPAIACLGGYSVWLAVNGMGGLDALKAVVPAQPLDFNVALALVVGSFISAGTLTADFVRFGRNAKLAVLVAMVAFFLGNSLMFIFGAAGAAALGMADISDVMIAQGLLLPAIVVLGLNIWTTNDNALYASGLGFANITGMSSKTLSVINGIIGTVCALWLYNNFVGWLTFLSAAIPPVGGVIIADYLMNRRRYEHFATTRMMSVNWVAILAVALGIAAGHWLPGIVPVNAVLGGALSYLILNPILNRKTTAAMTHVEANSVE [P0AA82]
total protein half-life in vivo [2]: 0.878 ± 0.056 h
total protein half-life in vivo [5]: 2.01 h

MKKKRPVLQDVADRVGVTKMTVSRFLRNPEQVSVALRGKIAAALDELGYIPNRAPDILSNATSRAIGVLLPSLTNQVFAEVLRGIESVTDAHGYQTMLAHYGYKPEMEQERLESMLSWNIDGLILTERTHTPRTLKMIEVAGIPVVELMDSKSPCLDIAVGFDNFEAARQMTTAIIARGHRHIAYLGARLDERTIIKQKGYEQAMLDAGLVPYSVMVEQSSSYSSGIELIRQARREYPQLDGVFCTNDDLAVGAAFECQRLGLKVPDDMAIAGFHGHDIGQVMEPRLASVLTPRERMGSIGAERLLARIRGESVTPKMLDLGFTLSPGGSI [P0ACP5]
total protein half-life in vivo [1]: 6.42 ± 0.18 h
total protein half-life in vivo [3]: 5.79 ± 0.47 h
total protein half-life in vivo [11]: 5.99 ± 1 h
total protein half-life in vivo [4]: 5.75 ± 0.31 h
total protein half-life in vivo [5]: > 4 h
total protein half-life in vivo [6]: 6.6 ± 0.52 h
total protein half-life in vivo [12]: 6.14 ± 0.46 h
total protein half-life in vivo [8]: 14.4 ± 1.9 h
total protein half-life in vivo [10]: > 16 h

Source: the supplement of paper PMC11246515
